Reference: patent publication US20200247901A1

Target: mesothelin on RH29 mesothelioma cells (V and M variant ratio 50:50) (human) (UniProt Q13421)
Experiment: cell-based or functional assay

Sequence of mesothelin on RH29 mesothelioma cells (V and M variant ratio 50:50) (human) (Q13421 other isoform, or with tags, fused parts or gaps mutant limits assumed): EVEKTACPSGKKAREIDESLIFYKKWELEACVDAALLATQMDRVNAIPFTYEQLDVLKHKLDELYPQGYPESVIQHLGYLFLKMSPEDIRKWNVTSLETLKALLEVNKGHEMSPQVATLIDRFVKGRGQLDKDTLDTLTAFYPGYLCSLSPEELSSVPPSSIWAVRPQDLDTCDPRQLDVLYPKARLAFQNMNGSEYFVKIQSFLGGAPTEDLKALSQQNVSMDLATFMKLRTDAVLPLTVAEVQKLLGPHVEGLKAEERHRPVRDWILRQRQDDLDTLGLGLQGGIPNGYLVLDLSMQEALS

B1: 15B6 anti-mesothelin antibody (IgG2b) (antibody, V domains shown)
VH: EVQLQQSGPVLVKPGASVKISCKASGYSFTGYYMHWVRQSLVKRLEWIGRINPYTGVPSYKHNFKDKASLTVDKSSSTAYMELHSLTSEDSAVYYCARELGGYWGQGTTLTVSS
VL: QAVVTQESALTTSPGETVTLTCRSSTGAVTTGNYPNWVQEKPDHLFTGLIAGTNNRAPGVPARFSGSLIGDKAALTITGAQTEDEAIYFCALWFSSHWVFGGGTKLTVL
For B1, the decrease in mesothelin shedding from RH29 cells (ELISA of shed mesothelin, OD value) was 50%.
